Reference: patent US9335325B2, “Immunodominant Mycobacterium tuberculosis peptides from cell wall proteins for early diagnosis and immunization” (priority 2008, dated 2016)

How the values were obtained:
[1] = system: anti-PTRP antibodies in sera from TB patients; assay: Western blot of rPTRP probed with human sera; type: binding; settings: for sera showing reactivity with the ~52 kDa protein: positive/tested
[2] = system: fibronectin (human plasma); assay: Western blot binding of rPTRP to ECM protein; settings: ECM protein 5 μg/ml
[3] = system: other ECM proteins tested (fibrinogen, elastin, collagen I-IV, vitronectin); assay: Western blot binding of rPTRP to other ECM proteins; parameters: species or system human; settings: data not shown
[4] = system: Laminin-1 (human placenta); assay: Western blot binding of rPTRP to ECM protein; settings: ECM protein 5 μg/ml
[5] = target: T1, Thrombospondin (human platelet) (Homo sapiens, UniProt P07996); assay: Western blot binding of rPTRP to ECM protein; settings: ECM protein 5 μg/ml
T1 construct: Thrombospondin (human platelet) was from Calbiochem, EMD Biosciences Inc; purchased Calbiochem, EMD Biosciences Inc; host or cells: human platelet
Method: The binding of the purified rPTRP to various ECM proteins was determined both by western blotting and ELISA (21). Laminin-1 (human placenta); fibronectin and fibrinogen (human plasma) and elastin (human lung) were obtained from Sigma; human collagen I; collagen III and collagen IV (human placenta), collagen II (human cartilage) and vitronectin (human plasma) from Chemicon International Inc. Temecula, Calif. Thrombospondin (human platelet) was from Calbiochem, EMD Biosciences Inc. and BSA (negative control) was from Promega. Western blots containing rPTRP (0.4 μg/lane) were blocked with 3% BSA in PBS and incubated with the ECM proteins (5 μg/ml) dissolved in PBS. Negative control lanes were incubated with PBS alone. The bound ECM proteins were detected with appropriate anti-ECM antibodies (anti-laminin, anti-fibronectin, anti-thrombospondin and anti-vitronectin at 1:5000; anti-fibrinogen at 1:1000; anti-Col I, Col III, Col IV and anti-elastin at 1:500; anti-Col II at 1:100) followed by appropriate enzyme-conjugated secondary antibodies (anti-rabbit IgG-AP at 1:2000; anti-goat IgG-AP at 1:3000).

[6] = target: T1, Thrombospondin (human platelet); assay: ELISA binding of rPTRP to ECM protein; settings: rPTRP 5-20 μg/ml coated
Method: (§1) The wells of ELISA plates were coated with various concentration of rPTRP (5-20 μg/ml in PBS) or BSA for 1 h at 37° C. followed by ON at 4° C. Subsequently, the wells were washed with PBS, blocked with 1% BSA in PBS (2 h at 37° C.), washed again with PBST and incubated with different ECM proteins (1 μg/ml; only laminin at 0.5 μg/ml) for 2 h at 37° C. After washing again, the wells were exposed to respective anti-ECM antibodies and the appropriate enzyme-conjugated secondary antibodies to detect the bound ECM proteins.

[7] = system: fibronectin (human plasma); assay: ELISA binding of rPTRP to ECM protein; settings: rPTRP 5-20 μg/ml coated
Method: as §1

[8] = system: Laminin-1 (human placenta); assay: ELISA binding of rPTRP to ECM protein; settings: rPTRP 5-20 μg/ml coated, laminin 0.5 μg/ml
Method: as §1

T1 sequence (P07996 19-1170): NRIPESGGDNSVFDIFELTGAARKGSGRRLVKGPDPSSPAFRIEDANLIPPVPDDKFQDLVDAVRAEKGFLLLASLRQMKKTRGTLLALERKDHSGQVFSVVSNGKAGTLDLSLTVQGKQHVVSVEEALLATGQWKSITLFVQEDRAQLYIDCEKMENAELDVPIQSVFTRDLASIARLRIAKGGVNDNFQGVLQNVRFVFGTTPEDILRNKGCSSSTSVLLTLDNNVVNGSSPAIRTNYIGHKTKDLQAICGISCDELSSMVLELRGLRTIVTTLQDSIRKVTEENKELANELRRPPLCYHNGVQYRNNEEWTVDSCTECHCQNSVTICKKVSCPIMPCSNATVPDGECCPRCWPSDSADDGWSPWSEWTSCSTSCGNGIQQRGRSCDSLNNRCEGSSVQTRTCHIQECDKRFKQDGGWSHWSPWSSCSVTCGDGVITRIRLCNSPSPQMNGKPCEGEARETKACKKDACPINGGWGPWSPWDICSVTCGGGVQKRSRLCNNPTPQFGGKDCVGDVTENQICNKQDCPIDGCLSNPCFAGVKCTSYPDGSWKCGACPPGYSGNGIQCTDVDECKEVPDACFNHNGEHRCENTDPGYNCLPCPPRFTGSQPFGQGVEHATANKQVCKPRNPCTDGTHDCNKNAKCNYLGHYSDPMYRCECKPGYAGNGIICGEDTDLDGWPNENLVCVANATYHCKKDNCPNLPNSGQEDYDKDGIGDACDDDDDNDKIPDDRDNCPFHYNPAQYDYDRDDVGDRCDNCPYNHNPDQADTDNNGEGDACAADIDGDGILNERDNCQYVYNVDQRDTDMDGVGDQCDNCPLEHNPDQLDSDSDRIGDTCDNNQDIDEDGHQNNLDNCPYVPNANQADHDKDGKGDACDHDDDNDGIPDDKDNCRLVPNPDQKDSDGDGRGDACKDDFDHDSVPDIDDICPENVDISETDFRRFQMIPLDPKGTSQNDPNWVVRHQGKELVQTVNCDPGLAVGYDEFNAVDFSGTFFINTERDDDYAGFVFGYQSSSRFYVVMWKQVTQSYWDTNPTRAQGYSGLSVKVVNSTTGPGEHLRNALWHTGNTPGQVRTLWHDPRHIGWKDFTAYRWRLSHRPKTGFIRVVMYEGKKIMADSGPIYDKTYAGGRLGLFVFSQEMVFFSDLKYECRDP

B1: rPTRP: purified recombinant proline-threonine repetitive protein of Mtb (SEQ ID NO:2), GST tag cleaved (protein)
chain: MDVALGVAVTDRVARLALVDSAAPGTVIDQFVLDVAEHPVEVLTETVVGTDRSLAGENHRLVATRLCWPDQAKADELQHALQDSGVHDVAVISEAQAATALVGAAHAGSAVLLVGDETATLSVVGDPDAPPTMVAVAPVAGADATSTVDTLMARLGDQALAPGDVFLVGRSAEHTTVLADQLRAASTMRVQTPDDPTFALARGAAMAAGAATMAHPALVADATTSLPRAEAGQSGSEGEQLAYSQASDYELLPVDEYEEHDEYGAAADRSAPLSRRSLLIGNAVVAFAVIGFASLAVAVAVTIRPTAASKPVEGHQNAQPGKFMPLLPTQQQAPVPPPPPDDPTAGFQGGTIPAVQNVVPRPGTSPGVGGTPASPAPEAPAVPGVVPAPVPIPVPIIIPPFPGWQPGMPTIPTAPPTTPVTTSATTPPTTPPTTPVTTPPTTPPTTPVTTPPTTPPTTPVTTPPTTVAPTTVAPTTVAPTTVAPTTVAPATATPTTVAPQPTQQPTQQPTQQMPTQQQTVAPQTVAPAPQPPSGGRNGSGGGDLFGGF
modifications: GST tag cleaved; possible residual linker residues; Mycobacterium tuberculosis Strain H37Rv
**Q.** How did the “sera showing significant reactivity with the protein” value ([1]; 6 PPD+, 6 PPD- and 6 HIV+TB- subjects) turn out when B1 was run?
**A.** none

**Q.** And the “sera showing reactivity with the ~52 kDa protein” value ([1]; HIV+TB+ patients)?
**A.** 5/6

**Q.** And the “sera showing reactivity with the ~52 kDa protein” value ([1]; HIV-TB+ patients)?
**A.** 4/6

**Q.** What about the binding to fibronectin [2] of the same molecule?
**A.** showed binding

**Q.** What about the “binding to other ECM proteins” value [3] of the same molecule?
**A.** not with any of the other ECM proteins tested

**Q.** What about the binding to laminin [4] of the same molecule?
**A.** showed binding

**Q.** What about the binding to thrombospondin [5] of the same molecule?
**A.** showed binding

**Q.** And the binding to thrombospondin [6]?
**A.** in a dose-dependent manner

**Q.** What about the binding to fibronectin [7] of the same molecule?
**A.** in a dose-dependent manner

**Q.** What about the binding to laminin [8] of the same molecule?
**A.** in a dose-dependent manner
